The source of these data is paper PMC12360457 (Nature, 2025).

This data set deals with the molecule itself. The data set is described as follows: cryo-EM structure.

B1: Hailong protein A (HalA) from Rhodobacteraceae bacterium QY30, purified as the detergent-solubilized HalA–ODA complex (natural protein)
chain: DTNAVKEPEPALPSAASRGRRTKNWWEPMFDANAPASFSVSDWNFSNNRGPRCTLFLAEKMPDATTLVVKDIDFQDCDFQGTFERKIVFKDCKFTRCDFGLSTFSRTKFSGCSFYASSFTQCTLENCEFRNCKYEKIFYSGNETQIPRTLIAEPYQFLFGACATVDSVPQGKSRFEQRARFEETRSTIARALLANLHSEGSEDTYYAAVKASTLSENRARIARALIKINSSASKGKSIISRAVSFLTGFASAISAVVGMLILLVMGSLNGWGSSISRAMLVGVVAISCVAYRYHYRFNLPPEDAMVKATEIFFLFGYTNYAKMGQEDFHLVFSNALLGLFWYAIAIPTISNRLTRARG
With B1, the binding result is reported as “binds”.
